From patent publication US4844895A, “Composition containing a peptide fragment of platelet factor four and method for restoring suppressed immune responses” (New York University, priority 1987, dated 1989)

How the values were obtained:
[1] = system: Con A-induced suppression; assay: Reversal of Con A-induced suppression of the splenic plaque-forming cell (PFC) response to SRBC in mice; format: in vivo; settings: for Geom. Mean of PFC/Spleen On Day 5, Expt. 2 / Immunomodulatory activity against suppression induced by 5 μg Con A (result in words): LA-PF4 0.6 μg; for Immunomodulatory activity against suppression induced by 5 μg Con A (result in words): concentrations well below those in serum: PDGF 0.003 μg, purified PF4 0.2 to 0.6 μg per mouse; for Reversal of Con A-induced suppression (result in words): mice, PFC response to SRBC
Procedure: Concanavalin A (Miles--Yeda Ltd., Research Products, Israel) was reconstituted with saline and kept frozen. Dilutions from the frozen stock were stored at 4° C. and injected i.v. into mice one day prior to antigen, sheep erythrocytes (SRBC). SRBC were obtained from Colorado Serum Company (Denver, Colorado) washed, counted and injected intraperitoneally (i.p.) in mice. Human serum or platelet releasate was administered i.v. one to two hours before Con A i.v.
The spleens of the mice were assayed for plaque-forming cells (PFC) on day 5 after injection of sheep red blood cells. The assay employed was as follows: single-cell suspensions were prepared from individual spleens of mice. The cells were suspended in Hanks' Balanced Salt Solution (Gibco Laboratories, Grand Island, New York) and washed. Direct PFC were enumerated using the well-known method of Jerne, N.K. et al (in Cell-Bound Antibody, Amos, E. and Koprowsky, H. eds., Wistar Institute Press. pp. 109-111, […]) with the slide modification of Mishell, R.I. and Dutton, R.W. (J. Exp. Med. 126:423, 1967), both incorporated by reference. […]
When treated with thrombin or A23187 (Calcium ionophore), platelets also release alpha granule constituents other than PF4. In particular, they release LA-PF4 and PDGF. The inventors tested the ability of LA-PF4 and PDGF to overcome suppression induced by 5 μg Con A. […]
Mice were injected with 10 micrograms of Con A i.v. on day -1 (except in the positive control, which received no Con A) and on day 0 with 2.5×10^6 SRBC per mouse as in Example 2 above. On day -1, the mice also received either: Nothing (100% control), Con A only, platelet releasate (equivalent to the amount of PF4 holoprotein contained in the platelet releasate from 2×10^7 platelets or about 0.12 microgram/mouse) and various concentrations of the above-mentioned synthetic C-terminal peptide of human PF4.

PFC response to SRBC = PFC response to SRBC in mice not injected with Con A (adjuvant effect); parameters: species or system CB6F1 mouse; settings: mouse, in vivo
Procedure: The spleens of the mice were assayed for plaque-forming cells (PFC) on day 5 after injection of sheep red blood cells. The assay employed was as follows: single-cell suspensions were prepared from individual spleens of mice. The cells were suspended in Hanks' Balanced Salt Solution (Gibco Laboratories, Grand Island, New York) and washed. Direct PFC were enumerated using the well-known method of Jerne, N.K. et al (in Cell-Bound Antibody, Amos, E. and Koprowsky, H. eds., Wistar Institute Press. pp. 109-111, […]) with the slide modification of Mishell, R.I. and Dutton, R.W. (J. Exp. Med. 126:423, 1967), both incorporated by reference.
In order to confirm and expand this finding, 1 ml o serum, diluted 1:2, was absorbed twice for thirty minutes at 4° C. using half the number of cells for each absorption as are listed for spleen (Sp1), lymphnode (LN) and thymus (Thy) in Table 3. Each CB6F1 mouse received 0.2 ml of a 1:4 dilution of absorbed or unabsorbed serum i.v. one to two hours before administration of 2×10^6 SRBC i.v. Plaque-forming cell response was measured as in Example 2.

[2] = 5 μg Con A, n = 4, PF4 0.2 to 0.6 μg per mouse

Row | Molecule | Geom. Mean of PFC/Spleen On Day 5, Expt. 2 [1, 2] | Immunomodulatory activity against suppression induced by 5 μg Con A (result in words) [1] | Reversal of Con A-induced suppression (result in words) [1] | Geom. Mean of PFC/Spleen On Day 5, Expt. 3 ([1]; 5 μg Con A, n = 4, PF4 0.2 to 0.6 μg per mouse, PF4 + heparin mixture diluted 1:15, 0.2 ml per mouse) | Enhancement of antibody (PFC) response without immunosuppressive agent (result in words) (PFC response to SRBC)
1 | LA-PF4: low-affinity platelet factor 4, platelet alpha-granule constituent (protein, UniProt P02775 44-128, looked up, Connective tissue-activating peptide III) Connective tissue-activating …: NLAKGKEESLDSDLYAELRCMCIKTTSGIHPKNIQSLEVIGKGTHCNQVEVIATLKDGRKICLDPDAPRIKKIVQKKLAGDESAD | 9,440 PFC/Spleen | a small amount | no significant immunomodulating activity | – | –
2 | PF4: human platelet factor 4 purified from platelet releasate on heparin-agarose (protein, UniProt P02776 32-101, looked up) Platelet factor 4: EAEEDGDLQCLCVKTTSQVRPRHITSLEVIKAGPHCPTAQLIATLKNGRKICLDLQAPLYKKIIKKLLES | 22,910 PFC/Spleen | very marked activity | able to overcome Con A-induced suppression in a dose-dependent fashion | 34,420 PFC/Spleen | can also stimulate antibody formation even in mammals not treated with an immunosuppressive agent
